The results in this text go back to patent US20090281024A1 (RAPTOR PHARMACEUTICALS, published 2009).

Numbering of substitutions follows the chain as printed.

Assay [1] deals with T1, MegaRAP1 d3 (human, UniProt P30533 235-353).
T1 construct: range 201-319 (mature RAP numbering); d3 of the variant selected on LRP2 CR89; also called RAPv2A d3; RAP v2A; not shown: N-terminal hexahistidine and S-peptide tags of pET30(+)a
T1 sequence (looked up): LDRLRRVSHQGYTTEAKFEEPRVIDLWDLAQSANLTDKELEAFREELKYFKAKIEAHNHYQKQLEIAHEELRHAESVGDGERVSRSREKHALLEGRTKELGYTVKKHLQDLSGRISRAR
As to the kind of experiment: solid-phase assay, coated CR protein. The method, then: Wells were washed with TBSTC and bound ligands detected with polyclonal anti-RAP (BP41/42, 1:1,000, BioMarin). Excess primary antibody was removed and wells washed before incubation with the secondary antibody, HRP-conjugated goat anti rabbit IgG (Bio-Rad). After washing, TMB substrate solutions (Bio-Rad) were added to detect HRP. Color development was stopped with 1N HCl. Absorption at 450 nm was measured with a microplate spectrophotometer (Molecular Devices). Data were plotted and Kd values derived by non-linear regression with the assumption of single-site binding (GraphPad Prism).
One premise of this work was that amino acids at A, C, A′ and C′ within the calcium-binding loops of a CR pair were key determinants of binding affinity for RAP and would be similarly important for binding of RAP variants. To test this idea, mutant LRP2 CR89 were prepared in which the native, non-canonical residues at these positions were sequentially substituted with the non-native, canonical residues. As defined above, the A, C, A′, C′ string for LRP2 CR89 is YVWR. Mutants included LRP2 CR89Y1042W (WVWR), LRP2 CR89V1047D (YDWR), LRP2 CR89R1088D (YVWD), LRP2 CR89V1047D R1088D (YDWD), LRP2 CR89 Y1042W V1047D R1088D (WDWD), LRP2 CR89Y1042W V1047D (WDWR), LRP2 CR89Y1042W R1088D (WVWD). Binding to both RAP d3 and MegaRAP1 d3 were measured for each LRP2 CR89 mutant by solid-phase assay. […] The A′ position in LRP2 CR89 is a tryptophan, the canonical residue for wild-type RAP d3 binding, and was not mutated in our studies. […] We did see a small increase in binding of RAP d3 to the WVWD and WDWD combinations at A, C, A′ and C′.

Assay [2] addresses T2, RAP d3 H249Y (human, UniProt P30533 235-353).
T2 construct: range 201-319 (mature RAP numbering); Forward mutant of m1; same construct; also called RAP H249Y; not shown: N-terminal hexahistidine and S-peptide tags of pET30(+)a
T2 sequence (looked up): T1 sequence (looked up) with T13S, K17E, K51E, A56K, E70K
As to the kind of experiment: solid-phase binding assay: LRP2 CR89 coated on the plate, d3 ligand in solution, anti-RAP detection, absorbance. The method, then:
(§1) Solid phase binding assays—Purified, refolded CR protein (1 μg) was bound to Nunc Maxisorp™ 96-well plates in TBS pH 8 supplemented with 5 mM CaCl₂ (TBSC) overnight at 4° C. Wells were washed with TBSC and then blocked with TBSC containing 2% bovine serum albumin (BSA). RAP ligands were then incubated with the immobilized receptor at a range of concentrations for 2 hours in the above blocking buffer supplemented with 0.05% Tween-20 at room temperature. Control wells contained no added ligand. As an additional control, to determine whether the absence of calcium affected binding, 10 mM EGTA was included in the incubation medium for some samples. Wells were washed with TBSTC and bound ligands detected with polyclonal anti-RAP (BP41/42, 1:1,000, BioMarin). Excess primary antibody was removed and wells washed before incubation with the secondary antibody, HRP-conjugated goat anti rabbit IgG (Bio-Rad). After washing, TMB substrate solutions (Bio-Rad) were added to detect HRP. Color development was stopped with 1N HCl. Absorption at 450 nm was measured with a microplate spectrophotometer (Molecular Devices). Data were plotted and Kd values derived by non-linear regression with the assumption of single-site binding (GraphPad Prism).
(§2) Next, the binding of RAP d3 and MegaRAP1 d3 proteins to LRP1 CR3-5 and LRP2 CR89 was assessed. […] In all cases, 10 mM EGTA prevented binding of both RAP d3 and MegaRAP1 d3 to CR proteins. Since calcium was the only divalent metal ion present in the binding buffer, this observation is consistent with both RAP d3 and MegaRAP1 d3 binding to calcium-loaded CR pairs. […] Therefore, wild-type RAP d3 and MegaRAP1 d3 have inverted binding preferences for these two receptor fragments.

Assay [3] has as its target T3, RAP d3 E251K, K270E (human, UniProt P30533 235-353).
T3 construct: range 201-319 (mature RAP numbering); Forward mutant of m1; same construct; also called RAP E251K, K270E; not shown: N-terminal hexahistidine and S-peptide tags of pET30(+)a
T3 sequence (looked up): T1 sequence (looked up) with T13S, K17E, Y49H, A56K
Described as above. On the procedure: as §1, §2

B1: LRP2 CR89 (receptor)
chain: not shown
notes: domain: CR89; Limits of the fragment are set only by the primers LRP2CR8F and LRP2CR9R; also called YVWR; L2 CR89; not shown: N-terminal hexahistidine and S-peptide tags of pET30(+)a
Take B1: the dissociation constant Kd – broadly, the free concentration of one partner at which half of the binding sites on the other are occupied at equilibrium, for simple one-to-one binding – in assay [1] is 33 nM. Moreover, the binding result in assay [2] and in assay [3] was “no binding (tested: 100 nM)” throughout.
